Data: the supplement of paper PMC11316812
± gives the standard deviation of the averaged measurements.

What was measured:
MCF7 = assay: percentage of EdU-negative (G0-arrested) nuclei per well, 72 h; higher = more G0 arrest; settings: reference: sequence is the full UniProt precursor, the tested protein was the secreted form or ectodomain
hTERT-HMEC = assay: as above; settings: reference: sequence is the full UniProt precursor, the tested protein was the secreted form or ectodomain
[1] = protein concentration 0.02382 µM
[2] = protein concentration 0.03125 µM
[3] = protein concentration 0.2382 µM
[4] = protein concentration 0.3125 µM
[5] = protein concentration 0.0357143 µM
[6] = protein concentration 0.357143 µM
[7] = protein concentration 0.0225 µM
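Also: secreted proteins added to cultured cells, EdU pulse at the end, nuclei found by Hoechst imaging, EdU status from nuclear versus surrounding ring intensity ratio, PBS as neutral control.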

Q6UXN8, sequence (chain, as listed by the source): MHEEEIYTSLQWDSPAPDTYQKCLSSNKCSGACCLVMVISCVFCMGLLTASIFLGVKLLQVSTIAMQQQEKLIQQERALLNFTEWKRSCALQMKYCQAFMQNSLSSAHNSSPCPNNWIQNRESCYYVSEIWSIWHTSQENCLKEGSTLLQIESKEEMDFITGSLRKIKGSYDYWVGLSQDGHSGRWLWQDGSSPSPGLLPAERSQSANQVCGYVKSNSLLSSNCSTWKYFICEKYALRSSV

| Substance | percentage of EdU-negative (MCF7; [7]) [%] | percentage of EdU-negative (MCF7; protein concentration 0.225 µM) [%] | percentage of EdU-negative (hTERT-HMEC; [7]) [%] | percentage of EdU-negative (hTERT-HMEC; protein concentration 0.225 µM) [%] | further results |
| --- | --- | --- | --- | --- | --- |
| MQRLCVYVLIFALALAAFSEASWKPRSQQPDAPLGTGANRDLELPWLEQQGPASHHRRQLGPQGPPHLVADPSKKQGPWLEEEEEAYGWMDFGRRSAEDEN | – | – | – | – | percentage of EdU-negative (MCF7; [1]): 24.94 ± 0.082%; percentage of EdU-negative (MCF7; [2]): 29.3 ± 0.76%; percentage of EdU-negative (MCF7; [3]): 27.1 ± 1.1%; percentage of EdU-negative (MCF7; [4]): 26.7 ± 1.6%; percentage of EdU-negative (hTERT-HMEC; [1]): 4.78 ± 0.41%; percentage of EdU-negative (hTERT-HMEC; [2]): 4.9 ± 0.48%; percentage of EdU-negative (hTERT-HMEC; [3]): 7.18 ± 0.61%; percentage of EdU-negative (hTERT-HMEC; [4]): 10.5 ± 2% |
| MGPLSAPPCTEHIKWKGLLVTASLLNFWNLPTTAQVTIEAQPPKVSEGKDVLLLVHNLPQNLTGYIWYKGQIRDLYHYITSYVVDGQIIIYGPAYSGRETAYSNASLLIQNVTREDAGSYTLHIIKRGDGTRGVTGYFTFTLYLETPKPSISSSNLNPREAMETVILTCDPETPDTSYQWWMNGQSLPMTHRFQLSETNRTLFLFGVTKYTAGPYECEIRNSGSASRSDPVTLNLLHGPDLPRIHPSYTNYRSGDNLYLSCFANSNPPAQYSWTINGKFQQSGQNLFIPQITTKHSGLYVCSVRNSATGEESSTSLTVKVSASTRIGLLPLLNPT | – | – | – | – | percentage of EdU-negative (MCF7; [5]): 24.9 ± 2.1%; percentage of EdU-negative (MCF7; [6]): 25.4 ± 0.54%; percentage of EdU-negative (hTERT-HMEC; [5]): 4.65 ± 0.56%; percentage of EdU-negative (hTERT-HMEC; [6]): 5.32 ± 1.1% |
| MGPISAPSCRWRIPWQGLLLTASLFTFWNPPTTAQLTIEAVPSNAAEGKEVLLLVHNLPQDPRGYNWYKGETVDANRRIIGYVISNQQITPGPAYSNRETIYPNASLLMRNVTRNDTGSYTLQVIKLNLMSEEVTGQFSVHPETPKPSISSNNSNPVEDKDAVAFTCEPETQNTTYLWWVNGQSLPVSPRLQLSNGNRTLTLLSVTRNDVGPYECEIQNPASANFSDPVTLNVLYGPDAPTISPSDTYYHAGVNLNLSCHAASNPPSQYSWSVNGTFQQYTQKLFIPNITTKNSGSYACHTTNSATGRNRTTVRMITVSDALVQGSSPGLSARATVSIMIGVLARVALI | 25.7 ± 1.8 | 27.4 ± 2.2 | 5.19 ± 1.8 | 9.55 ± 1.5 | – |
| MLLWVILLVLAPVSGQFARTPRPIIFLQPPWTTVFQGERVTLTCKGFRFYSPQKTKWYHRYLGKEILRETPDNILEVQESGEYRCQAQGSPLSSPVHLDFSSASLILQAPLSVFEGDSVVLRCRAKAEVTLNNTIYKNDNVLAFLNKRTDFHIPHACLKDNGAYRCTGYKESCCPVSSNTVKIQVQEPFTRPVLRASSFQPISGNPVTLTCETQLSLERSDVPLRFRFFRDDQTLGLGWSLSPNFQITAMWSKDSGFYWCKAATMPYSVISDSPRSWIQVQIPASHPVLTLSPEKALNFEGTKVTLHCETQEDSLRTLYRFYHEGVPLRHKSVRCERGASISFSLTTENSGNYYCTADNGLGAKPSKAVSLSVTVPVSHPVLNLSSPEDLIFEGAKVTLHCEAQRGSLPILYQFHHEGAALERRSANSAGGVAISFSLTAEHSGNYYCTADNGFGPQRSKAVSLSVTVPVSHPVLTLSSAEALTFEGATVTLHCEVQRGSPQILYQFYHEDMPLWSSSTPSVGRVSFSFSLTEGHSGNYYCTADNGFGPQRSEVVSLFVTVPVSRPILTLRVPRAQAVVGDLLELHCEAPRGSPPILYWFYHEDVTLGSSSAPSGGEASFNLSLTAEHSGNYSCEANNGLVAQHSDTISLSVIVPVSRPILTFRAPRAQAVVGDLLELHCEALRGSSPILYWFYHEDVTLGKISAPSGGGASFNLSLTTEHSGIYSCEADNGLEAQRSEMVTLKVAVPVSRPVLTLRAPGTHAAVGDLLELHCEALRGSPLILYRFFHEDVTLGNRSSPSGGASLNLSLTAEHSGNYSCEADNGLGAQRSETVTLYITGLTANRSGPFATGVAGGLLSIAGLAAGALLLYCWLSRKAGRKPASDPARSPSDSDSQEPTYHNVPAWEELQPVYTNANPRGENVVYSEVRIIQEKKKHAVASDPRHLRNKGSPIIYSEVKVASTPVSGSLFLASSAPHR [Q96RD9] | 26 ± 0.75 | 31.1 ± 3.2 | 4.23 ± 0.27 | 5.41 ± 0.94 | – |
| MKGSIFTLFLFSVLFAISEVRSKESVRLCGLEYIRTVIYICASSRWRRHQEGIPQAQQAETGNSFQLPHKREFSEENPAQNLPKVDASGEDRLWGGQMPTEELWKSKKHSVMSRQDLQTLCCTDGCSMTDLSALC [Q9Y5Q6] | 25.5 ± 2.3 | 27.6 ± 3 | 5.011 ± 0.042 | 4.97 ± 0.86 | – |
| Q6UXN8 | 24.9 ± 2.2 | 25.2 ± 1.4 | 4.27 ± 1 | 4.93 ± 0.51 | – |
